According to article PMC10804987:

Biological target: PRRSV-2 nucleocapsid (N) protein with Myc tag
Experiment: ELISA
Conditions: mutated N-His as coating antigen; N-Myc added; parent: est. 0.97; read off a plot

Substance | response [OD450nm]
PRRSV-2 nucleocapsid (N) protein with His tag Q109A | 0.7
PRRSV-2 nucleocapsid (N) protein with His tag T108A | 1
PRRSV-2 nucleocapsid (N) protein with His tag S105A; T108A; Q109A | 0.2
PRRSV-2 nucleocapsid (N) protein with His tag S105A | 0.28
